What follows are sequences tested on Escherichia coli TOP10 (assay: shrunken log2 fold change of peptide-encoding DNA abundance (4.5 h post-induction vs induction); higher = less antimicrobial activity (less host growth inhibition)). Conditions: time post-induction: 4.5 h; library: site-saturation at positions 5, 18, 19, 20.
With RRIRLRPPRLPRPRPRPQTWPRP the “shrunken log2 fold change” value was 0.0171. In the case of RRIRRRPPRLPRPRPRPLPQPRP, the “shrunken log2 fold change” value is reported as 0.436. RRIRIRPPRLPRPRPRPNWVPRP was tested, and the “shrunken log2 fold change” value was -0.231. RRIRCRPPRLPRPRPRPFIPPRP was tested, and the “shrunken log2 fold change” value was -0.976. In the case of RRIRLRPPRLPRPRPRPSADPRP, the “shrunken log2 fold change” value is reported as 0.07. RRIRERPPRLPRPRPRPGNRPRP was tested, and the “shrunken log2 fold change” value was -0.0677. For RRIRYRPPRLPRPRPRPRIMPRP, the “shrunken log2 fold change” value was -1.06. In the case of RRIRMRPPRLPRPRPRPYNAPRP, the “shrunken log2 fold change” value is reported as -0.439. RRIRLRPPRLPRPRPRPPNCPRP was tested, and the “shrunken log2 fold change” value was -0.0466. With RRIRIRPPRLPRPRPRPSIYPRP the “shrunken log2 fold change” value was -0.925. RRIRIRPPRLPRPRPRPLFMPRP was tested, and the “shrunken log2 fold change” value was -0.756. RRIRLRPPRLPRPRPRPAIKPRP was tested, and the “shrunken log2 fold change” value was -0.139. For RRIRFRPPRLPRPRPRPNWDPRP, the “shrunken log2 fold change” value was -0.269. With RRIRQRPPRLPRPRPRPAKQPRP the “shrunken log2 fold change” value was 0.0569. With RRIRERPPRLPRPRPRPDTAPRP the “shrunken log2 fold change” value was -0.131. RRIRVRPPRLPRPRPRPKYMPRP was tested, and the “shrunken log2 fold change” value was -0.433. For RRIRPRPPRLPRPRPRPKYSPRP, the “shrunken log2 fold change” value was -0.55. In the case of RRIRYRPPRLPRPRPRPIINPRP, the “shrunken log2 fold change” value is reported as -0.099. In the case of RRIRVRPPRLPRPRPRPPYVPRP, the “shrunken log2 fold change” value is reported as -0.153. With RRIRARPPRLPRPRPRPHPYPRP the “shrunken log2 fold change” value was -0.484. In the case of RRIRVRPPRLPRPRPRPPFKPRP, the “shrunken log2 fold change” value is reported as 0.163. For RRIRNRPPRLPRPRPRPYSMPRP, the “shrunken log2 fold change” value was -0.292. RRIRCRPPRLPRPRPRPHDKPRP was tested, and the “shrunken log2 fold change” value was -0.363. For RRIRHRPPRLPRPRPRPMEDPRP, the “shrunken log2 fold change” value was 0.0325. With RRIRNRPPRLPRPRPRPMRRPRP the “shrunken log2 fold change” value was -0.0657. For RRIRIRPPRLPRPRPRPHGWPRP, the “shrunken log2 fold change” value was 0.0102. In the case of RRIRQRPPRLPRPRPRPMYIPRP, the “shrunken log2 fold change” value is reported as -0.0435. RRIRPRPPRLPRPRPRPFDAPRP was tested, and the “shrunken log2 fold change” value was 0.0141. For RRIRERPPRLPRPRPRPLHYPRP, the “shrunken log2 fold change” value was -0.249. In the case of RRIRCRPPRLPRPRPRPKMKPRP, the “shrunken log2 fold change” value is reported as -0.269. In the case of RRIRVRPPRLPRPRPRPNYIPRP, the “shrunken log2 fold change” value is reported as -0.631. RRIRCRPPRLPRPRPRPSVSPRP was tested, and the “shrunken log2 fold change” value was -0.185. For RRIRYRPPRLPRPRPRPNVEPRP, the “shrunken log2 fold change” value was -0.155. With RRIRERPPRLPRPRPRPRYTPRP the “shrunken log2 fold change” value was -0.244. With RRIRMRPPRLPRPRPRPKARPRP the “shrunken log2 fold change” value was 1.61. In the case of RRIRQRPPRLPRPRPRPWSKPRP, the “shrunken log2 fold change” value is reported as 0.00202. With RRIRLRPPRLPRPRPRPTYCPRP the “shrunken log2 fold change” value was -1. RRIRYRPPRLPRPRPRPGTEPRP was tested, and the “shrunken log2 fold change” value was -0.521. With RRIRRRPPRLPRPRPRPEHYPRP the “shrunken log2 fold change” value was 0.0555. RRIRHRPPRLPRPRPRPAKWPRP was tested, and the “shrunken log2 fold change” value was -0.0376. RRIRKRPPRLPRPRPRPPQRPRP was tested, and the “shrunken log2 fold change” value was 1.08. In the case of RRIRCRPPRLPRPRPRPPIRPRP, the “shrunken log2 fold change” value is reported as 0.0846. With RRIRVRPPRLPRPRPRPWTHPRP the “shrunken log2 fold change” value was -0.104. For RRIRSRPPRLPRPRPRPADKPRP, the “shrunken log2 fold change” value was -0.254. For RRIRARPPRLPRPRPRPEDPPRP, the “shrunken log2 fold change” value was 0.823. RRIRGRPPRLPRPRPRPRDRPRP was tested, and the “shrunken log2 fold change” value was 0.789. For RRIRVRPPRLPRPRPRPDMNPRP, the “shrunken log2 fold change” value was -0.548. In the case of RRIRSRPPRLPRPRPRPFGGPRP, the “shrunken log2 fold change” value is reported as -0.0941. In the case of RRIRPRPPRLPRPRPRPVSVPRP, the “shrunken log2 fold change” value is reported as 0.0528. For RRIRERPPRLPRPRPRPFVAPRP, the “shrunken log2 fold change” value was 0.0108. With RRIRLRPPRLPRPRPRPWPGPRP the “shrunken log2 fold change” value was 0.0987. RRIRSRPPRLPRPRPRPGKGPRP was tested, and the “shrunken log2 fold change” value was -0.0961. RRIRGRPPRLPRPRPRPPVYPRP was tested, and the “shrunken log2 fold change” value was 0.352. For RRIRQRPPRLPRPRPRPTNTPRP, the “shrunken log2 fold change” value was -0.216. In the case of RRIRRRPPRLPRPRPRPFIGPRP, the “shrunken log2 fold change” value is reported as -0.25. RRIRQRPPRLPRPRPRPRSPPRP was tested, and the “shrunken log2 fold change” value was 0.0984. With RRIRTRPPRLPRPRPRPGWRPRP the “shrunken log2 fold change” value was 0.69. RRIRGRPPRLPRPRPRPKTIPRP was tested, and the “shrunken log2 fold change” value was 0.445. For RRIRGRPPRLPRPRPRPGCQPRP, the “shrunken log2 fold change” value was 1.17. With RRIRKRPPRLPRPRPRPTRSPRP the “shrunken log2 fold change” value was 0.831. For RRIRNRPPRLPRPRPRPWSGPRP, the “shrunken log2 fold change” value was -0.173. For RRIRNRPPRLPRPRPRPDTRPRP, the “shrunken log2 fold change” value was -0.111. For RRIRSRPPRLPRPRPRPQGLPRP, the “shrunken log2 fold change” value was 0.0641. RRIRHRPPRLPRPRPRPEANPRP was tested, and the “shrunken log2 fold change” value was 0.00386. For RRIRWRPPRLPRPRPRPLQCPRP, the “shrunken log2 fold change” value was 0.101. RRIRKRPPRLPRPRPRPHYPPRP was tested, and the “shrunken log2 fold change” value was -0.16. For RRIRGRPPRLPRPRPRPWNNPRP, the “shrunken log2 fold change” value was 0.139. For RRIRWRPPRLPRPRPRPPEYPRP, the “shrunken log2 fold change” value was 0.539. RRIRFRPPRLPRPRPRPECCPRP was tested, and the “shrunken log2 fold change” value was 0.225. RRIRVRPPRLPRPRPRPRFEPRP was tested, and the “shrunken log2 fold change” value was 0.376. With RRIRVRPPRLPRPRPRPPWRPRP the “shrunken log2 fold change” value was 0.57. In the case of RRIRERPPRLPRPRPRPKVEPRP, the “shrunken log2 fold change” value is reported as -0.0672. For RRIRMRPPRLPRPRPRPQELPRP, the “shrunken log2 fold change” value was 0.0211. For RRIRIRPPRLPRPRPRPRQYPRP, the “shrunken log2 fold change” value was -0.258. For RRIRARPPRLPRPRPRPQPDPRP, the “shrunken log2 fold change” value was 0.254.
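Also: peptides expressed intracellularly from a pBAD plasmid library in pooled LB shake-flask culture, induced with 0.3% L-arabinose, DNA abundance read by NGS, three biological replicates, DESeq2 with apeglm shrinkage.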
